Data on three substances can be found in PMC8957996.

The target of assay [1] is [Ala^1]gA. The experiment in a line: single-channel electrophysiology (planar lipid bilayer); DLoPC/n-decane bilayer (25 uM butylated hydroxytoluene in the bilayer-forming solution), AgA(15) and gA^-(13) together, 1 M NaCl, pH 7 (10 mM HEPES), 200 mV, 500 Hz; 25 ± 1 °C.
Assay [2] deals with [Ala^1]gA. Briefly: single-channel electrophysiology (planar lipid bilayer); DOPC/n-decane bilayer, AgA(15) and gA^-(13) together, 1 M NaCl, pH 7, 200 mV, 500 Hz; 25 ± 1 °C.
Assay [3] has as its target [Ala^1]gA. The experiment in a line: single-channel electrophysiology (planar lipid bilayer); DoPC (ether phospholipid)/n-decane bilayer, AgA(15) and gA^-(13) together, 1 M NaCl, pH 7 (10 mM HEPES), 200 mV, 500 Hz; 25 ± 1 °C.
For assay [4], the target named is [Val^1]gA. The experiment in a line: single-channel electrophysiology (planar lipid bilayer); DOPS/n-decane bilayer, 0.1 M Na+, pH 7 (HEPES); bilayer punch method, 25 ± 1 °C, ±200 mV.
Assay [5] concerns the target [Val^1]gA. Briefly: single-channel electrophysiology (planar lipid bilayer); DOPE:DOPC (4:1)/n-decane bilayer, 0.1 M Na+, pH 9 (Na2HPO4); bilayer punch method, 25 ± 1 °C, ±200 mV.
For assay [6], the target named is [Val^1]gA. The experiment in a line: single-channel electrophysiology (planar lipid bilayer); DOPE:DOPC (4:1)/n-decane bilayer, 0.1 M Na+, pH 3 (Gly-Gly); bilayer punch method, 25 ± 1 °C, ±200 mV.
The target of assay [7] is [Val^1]gA. The experiment in a line: single-channel electrophysiology (planar lipid bilayer); DOPS/n-decane bilayer, 0.1 M Na+, pH 8 (Na2HPO4); bilayer punch method, 25 ± 1 °C, ±200 mV; monomers in opposing monolayers dimerise to the conducting channel.
Assay [8] deals with [Val^1]gA. Briefly: single-channel electrophysiology (planar lipid bilayer); DOPS/n-decane bilayer, 0.1 M Na+, pH 6 (Na2HPO4); bilayer punch method, 25 ± 1 °C, ±200 mV.
Assay [9] has as its target [Val^1]gA. Briefly: single-channel electrophysiology (planar lipid bilayer); DOPS:DOPE (1:2)/n-decane bilayer, 0.1 M Na+, pH 7 (HEPES); bilayer punch method, 25 ± 1 °C, ±200 mV.
The target in assay [10] is [Val^1]gA. Briefly: single-channel electrophysiology (planar lipid bilayer); DOPS/n-decane bilayer, 0.1 M Na+, pH 7 (Na2HPO4); bilayer punch method, 25 ± 1 °C, ±200 mV.
Assay [11] has as its target [Val^1]gA. The experiment in a line: single-channel electrophysiology (planar lipid bilayer); DOPE:DOPC (1:1)/n-decane bilayer, 1.0 M NaCl, unbuffered (pH 6-7); bilayer punch method, 25 ± 1 °C, 200 mV, 100 Hz.
Assay [12] has as its target [Val^1]gA. Briefly: single-channel electrophysiology (planar lipid bilayer); DOPC/n-decane bilayer, 1.0 M NaCl, unbuffered (pH 6-7); bilayer punch method, 25 ± 1 °C, 200 mV, 100 Hz.
For assay [13], the target named is [Val^1]gA. Briefly: single-channel electrophysiology (planar lipid bilayer); DOPE:DOPC (4:1)/n-decane bilayer, 0.1 M Na+, pH 1; bilayer punch method, 25 ± 1 °C, ±200 mV.
Assay [14] addresses [Val^1]gA. The experiment in a line: single-channel electrophysiology (planar lipid bilayer); DOPS/n-decane bilayer, 0.1 M Na+, pH 5 (Gly-Gly); bilayer punch method, 25 ± 1 °C, ±200 mV.
For assay [15], the target named is [Val^1]gA. The experiment in a line: single-channel electrophysiology (planar lipid bilayer); DOPE:DOPC (4:1)/n-decane bilayer, 0.1 M Na+, pH 5 (Gly-Gly); bilayer punch method, 25 ± 1 °C, ±200 mV.
For assay [16], the target named is [Val^1]gA. The experiment in a line: single-channel electrophysiology (planar lipid bilayer); DOPS/n-decane bilayer, 0.1 M Na+, pH 4 (Gly-Gly); bilayer punch method, 25 ± 1 °C, ±200 mV.
The target in assay [17] is [Val^1]gA. The experiment in a line: single-channel electrophysiology (planar lipid bilayer); DOPE:DOPC (1:3)/n-decane bilayer, 1.0 M NaCl, unbuffered (pH 6-7); bilayer punch method, 25 ± 1 °C, 200 mV, 100 Hz.
The target in assay [18] is [Val^1]gA. The experiment in a line: single-channel electrophysiology (planar lipid bilayer); DOPS/n-decane bilayer, 0.1 M Na+, pH 3 (Gly-Gly); bilayer punch method, 25 ± 1 °C, ±200 mV.
The target in assay [19] is [Val^1]gA. Briefly: single-channel electrophysiology (planar lipid bilayer); DOPS:DOPC (1:2)/n-decane bilayer, 0.1 M Na+, pH 7 (HEPES); bilayer punch method, 25 ± 1 °C, ±200 mV.
The target of assay [20] is [Val^1]gA. Briefly: single-channel electrophysiology (planar lipid bilayer); DOPE:DOPC (4:1)/n-decane bilayer, 0.1 M Na+, pH 0; bilayer punch method, 25 ± 1 °C, ±200 mV.
For assay [21], the target named is [Val^1]gA. Briefly: single-channel electrophysiology (planar lipid bilayer); DOPE:DOPC (4:1)/n-decane bilayer, 0.1 M Na+, pH 7.8 (Na2HPO4); bilayer punch method, 25 ± 1 °C, ±200 mV.
The target in assay [22] is [Val^1]gA. Briefly: single-channel electrophysiology (planar lipid bilayer); DOPE:DOPC (3:1)/n-decane bilayer, 1.0 M NaCl, unbuffered (pH 6-7); bilayer punch method, 25 ± 1 °C, 200 mV, 100 Hz.
Assay [23] concerns the target des-(Val^1-Gly^2)gA^–. Briefly: single-channel electrophysiology (planar lipid bilayer); DLoPC/n-decane bilayer (25 uM butylated hydroxytoluene in the bilayer-forming solution), AgA(15) and gA^-(13) together, 1 M NaCl, pH 7 (10 mM HEPES), 200 mV, 500 Hz; 25 ± 1 °C.
The target of assay [24] is des-(Val^1-Gly^2)gA^–. Briefly: single-channel electrophysiology (planar lipid bilayer); DOPC/n-decane bilayer, AgA(15) and gA^-(13) together, 1 M NaCl, pH 7, 200 mV, 500 Hz; 25 ± 1 °C.
Assay [25] addresses des-(Val^1-Gly^2)gA^–. The experiment in a line: single-channel electrophysiology (planar lipid bilayer); DoPC (ether phospholipid)/n-decane bilayer, AgA(15) and gA^-(13) together, 1 M NaCl, pH 7 (10 mM HEPES), 200 mV, 500 Hz; 25 ± 1 °C.

On to [Ala^1]gA (peptide), for which the channel lifetime tau (= 1/k-1, dissociation of the dimer) in [Ala^1]gA [1] amounted to 823 ms; in assay [Ala^1]gA [2], 170 ms; in assay [Ala^1]gA [3], 296 ms.
Take [Val^1]gA (peptide): the channel lifetime tau (= 1/k-1, dissociation of the dimer) in [Val^1]gA [4] was found to be 1340 ms; in assay [Val^1]gA [5] it was 150 ms; in assay [Val^1]gA [6], 70 ms; in [Val^1]gA [7], 1380 ms; in [Val^1]gA [8], 920 ms; in [Val^1]gA [9], 140 ms. For the same substance, the channel lifetime tau (= 1/k-1, dissociation of the dimer) in [Val^1]gA [10] was determined as 1320 ms; in assay [Val^1]gA [11], 240 ms; in [Val^1]gA [12] it was 550 ms; in assay [Val^1]gA [13] it was 90 ms; in assay [Val^1]gA [14] it was 800 ms; in [Val^1]gA [15], 80 ms. The channel lifetime tau (= 1/k-1, dissociation of the dimer) is 270 ms in [Val^1]gA [16]; 350 ms in assay [Val^1]gA [17]; 170 ms in assay [Val^1]gA [18]; 470 ms in assay [Val^1]gA [19]; 220 ms in assay [Val^1]gA [20]; 100 ms in [Val^1]gA [21]. For the same substance, the channel lifetime tau (= 1/k-1, dissociation of the dimer) in assay [Val^1]gA [22] was 260 ms. For the same substance, the channel lifetime tau (single experiment) in [Val^1]gA [5] worked out at 162 ms; in assay [Val^1]gA [9] it was 143 ms; in assay [Val^1]gA [11] it was 229 ms; in [Val^1]gA [12] it was 563 ms; in assay [Val^1]gA [15], 65 ms; in assay [Val^1]gA [17], 304 ms. For the same substance, the channel lifetime tau (single experiment) worked out at 486 ms in [Val^1]gA [19] and 235 ms in assay [Val^1]gA [20]. The substance further displayed a fold decrease of k1 (association rate constant) against pH 7 in assay [Val^1]gA [18] of 100 to 400 fold. In assay [Val^1]gA [18], this substance displayed a fold decrease of the dimerization constant KD (= k1·τ) against pH 7 of 1000 fold. This substance also showed a fold decrease of k1 (association rate constant) against DOPC bilayers in assay [Val^1]gA [22] of 10 fold. In assay [Val^1]gA [22], the fold decrease of the dimerization constant KD (= k1·τ) against DOPC bilayers was 20 fold.
On to des-(Val^1-Gly^2)gA^– (peptide), for which the channel lifetime tau (= 1/k-1, dissociation of the dimer) with des-(Val^1-Gly^2)gA^– [23] was determined as 61 ms; in the assay with des-(Val^1-Gly^2)gA^– [24], 13.8 ms; in the assay with des-(Val^1-Gly^2)gA^– [25], 29 ms.
